From article PMC6249866 (Molecular Biology of the Cell, 2018)

Target: T1, Asl-A-His6 (WT; Asterless amino acids 1-374) (Drosophila, UniProt Q9VNE4 1-374)
T1 sequence (looked up): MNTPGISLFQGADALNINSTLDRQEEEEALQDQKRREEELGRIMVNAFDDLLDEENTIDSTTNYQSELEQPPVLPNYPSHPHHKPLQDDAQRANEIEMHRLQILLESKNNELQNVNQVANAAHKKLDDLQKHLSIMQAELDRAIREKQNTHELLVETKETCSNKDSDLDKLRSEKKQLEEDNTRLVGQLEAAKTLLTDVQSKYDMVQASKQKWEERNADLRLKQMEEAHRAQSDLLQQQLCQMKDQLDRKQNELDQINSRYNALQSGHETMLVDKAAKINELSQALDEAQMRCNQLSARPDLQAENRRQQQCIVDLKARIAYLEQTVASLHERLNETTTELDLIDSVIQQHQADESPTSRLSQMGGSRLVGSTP
Test: pull-down

binding result: binds
B1: GST-PB1-PB2 (Plk4 amino acids 382-602) (domain or fragment, Drosophila, UniProt O97143 382-602, looked up)
chain: DRISVPPLNTKRLLPTRYKTKNAIMSILRNGEVVLEFLKFRPTYNEDRINDICRISDDGQRIIIYQPDPGRGLPVREQPPDLQIPSGDCVYNYDNLPSKHWKKYIYGARFVGLVKSKTPKVTYFSTLGKCQLMETMTDFEIRFYSGAKLLKTPSEGLKVYDRNGMLLSDYSCSESRSLIEHGNECFTHCVNISNALEVAQTKDNSCFPVTIGRRPITDVQP
